This passage reports stoichiometry N results from paper PMC8318374.

The target of the assay is GFP-CC-tet-KLC1E^CTD (de novo-designed coiled-coil tetramer between GFP and KLC1E^CTD) (mouse). The assay is described as follows: cross-linking.

In turn, “GFP-CC-tet-KLC1E^CTD (de novo-designed coiled-coil tetramer between GFP and KLC1E^CTD)” came in with a stoichiometry N of 4.
